The values below come from PMC8421374.

Data set [1] can be described thus: cell-attached patch clamp, peak stretch-activated current, Piezo1-/- HEK293T. The conditions noted are these: glycan lost; control: WT Piezo1-GFP. On the technique in general: Patch clamp records ionic current or voltage across a cell membrane.
Data set [2] is described as follows: immunogold TEM, membrane/cytoplasm labelling ratio. The conditions noted are these: glycan lost; control: WT Piezo1.
Data set [3] in a line: single-channel recordings at five voltages. Particulars: glycan lost; control: WT Piezo1.
A short description of data set [4]: inactivation time constants, cell-attached patches. Particulars: glycan lost; control: WT Piezo1-GFP.
A short description of data set [5]: cell-attached patch clamp, split construct, Piezo1-/- HEK293T. Particulars: glycan lost; control: WT split Piezo1.
Data set [6] is described as follows: Fura-2 ratiometric Ca2+ imaging, 2 µM Yoda-1. Particulars: glycan lost; control: WT Piezo1.
Data set [7] can be described thus: live cell anti-HA surface labelling, confocal. The conditions noted are these: glycan lost; control: WT Piezo1 with extracellular HA tag.

For the substance human Piezo1: N2294Q/N2331Q (CapQQ), in data set [1], the “other: channel current” value is listed as “decreases”. The localisation_or_trafficking entry in data set [2] is recorded as “decreases”. With human Piezo1: N658Q and N885Q, the “other: channel current” value in data set [1] is “decreases”. human Piezo1: N892Q: in data set [3], the “other: unitary conductance, other: unitary conductance” value (“other: unitary conductance, other” below) is on record as “no change”. Take human Piezo1: N295Q and N885Q: the “other: channel current” value in data set [1] is reported as “decreases”.

As to human Piezo1: N2294Q, the “other: channel current” value in data set [1] is “no change”. In addition, the “other: channel inactivation kinetics” value in data set [4] is given as “no change”. In the case of human Piezo1: N2331Q, in data set [1], the “other: channel current” value is on record as “no change”. The “other: channel inactivation kinetics” value in data set [4] was “no change”. For human Piezo1: N658Q, the “other: channel current” value in data set [1] is recorded as “decreases”. Moreover, in data set [3], the “other: unitary conductance, other” value is on record as “no change”.

On to human Piezo1: N295Q, for which, in data set [3], the “other: unitary conductance, other” value was “no change”. As to human Piezo1: N2294Q and N2331Q, in data set [5], the “other: channel current” value is “abolishes”. With human Piezo1: N2294Q/N2331Q, in data set [6], the “other: Yoda-1-evoked Ca2+ influx” value is “abolishes”. Moreover, the localisation_or_trafficking result in data set [7] is listed as “abolishes”. Turning to human Piezo1: N1095Q, the “other: unitary conductance, other” value in data set [3] is on record as “no change”.

For the substance human Piezo1: N885Q, the “other: channel current” value in data set [1] is reported as “decreases”. Also, in data set [3], the “other: unitary conductance, other” value is “no change”.
